For 1 molecule, Kd results are on record in article PMC6839450 (ACS chemical biology, 2015).

Bridges are numbered along the chain shown (N, C = ends). Where no end group is shown, it is not given here. [ ]: non-standard residue; d: D form. The star is where a group is joined. FITC = O=C1OC2(c3ccc(O)cc3Oc3cc(O)ccc32)c2ccc(NC(=S)*)cc21; olefin residue = not defined here

This experiment concerns the target full-length BCL-XL (UniProt Q07817-1 1-233). In words: fluorescence polarisation.

full-length BCL-XL, sequence (Q07817 whole entry): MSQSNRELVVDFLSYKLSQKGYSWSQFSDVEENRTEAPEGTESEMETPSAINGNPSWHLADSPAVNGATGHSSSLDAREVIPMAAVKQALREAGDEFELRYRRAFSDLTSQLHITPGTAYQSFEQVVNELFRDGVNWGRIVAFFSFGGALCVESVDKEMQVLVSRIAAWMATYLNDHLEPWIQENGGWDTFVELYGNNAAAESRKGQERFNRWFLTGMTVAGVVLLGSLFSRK

For orientation: Kd means the constant that tells how readily two partners part at equilibrium. As for {FITC}-EIWIAQELR[olefin residue]IGD[olefin residue]FNAYYA (staple 10-14; not fully specified; reading uncertain) [FITC-BIM SAHBA2], binding was put at a Kd of 68 nM.
